Experimental data published in publication PMC4107924 (IUCrJ, 2014).

Biological target: T1, MATβV1Δ16, MATβV1 lacking the first 16 amino acids (human, UniProt Q9NZL9 17-334)
T1 construct: MATβV1 (splicing variant 1 of mat2B), human, lacking the first 16 amino acids; Cloned via NcoI and XhoI sites like MATβV1; source: cloned in the HIS-parallel vector
Experiment: SEC; MATα and MATβ incubated 1 h at 4°C in 50 mM HEPES pH 7.5, 10 mM MgCl2, 50 mM KCl, 300-500 µM NADP; Superdex 200 10/300 in 200 mM NaCl, 25 mM HEPES pH 7.5, 1 mM MgCl2, 5 mM KCl, 1 mM TCEP; also tested for the effect of NADP
Conditions: both partners purified

- binding result: binds
B1: MATα1, catalytic subunit of methionine adenosyltransferase (mat1A gene) (enzyme)
chain: not shown
notes: MATα1, catalytic subunit encoded by mat1A, human; construct provided by SGC Oxford; His tag cleaved with TEV protease; also called MAT(α1)4; source: E. coli BL21(DE3), purified (nickel resin, HiTrap Q ion exchange, Superdex 200 gel filtration)
